Data taken from patent publication US20260130997A1 (BEAM THERAPEUTICS, published 2026).

Legend:
Experiment in all cases: binding to mutant CD45 D1-D2 protein relative to WT CD45 D1-D2; method not given
[1] = target: T1, mutant CD45 D1-D2 protein T266A (Homo sapiens, UniProt P08575 225-394, limits assumed)
T1 chain: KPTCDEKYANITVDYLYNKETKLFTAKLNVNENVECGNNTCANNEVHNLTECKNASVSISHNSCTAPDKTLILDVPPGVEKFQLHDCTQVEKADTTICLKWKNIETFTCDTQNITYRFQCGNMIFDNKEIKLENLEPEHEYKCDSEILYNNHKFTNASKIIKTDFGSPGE

[2] = target: T2, mutant CD45 D1-D2 protein N263S, T264A, T266A (Homo sapiens, UniProt P08575 225-394, limits assumed)
T2 chain: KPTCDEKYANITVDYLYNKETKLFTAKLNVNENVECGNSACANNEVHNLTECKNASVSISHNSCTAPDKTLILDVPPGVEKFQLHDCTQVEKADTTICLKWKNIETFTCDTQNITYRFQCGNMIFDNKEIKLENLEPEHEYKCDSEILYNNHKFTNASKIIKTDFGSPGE

[3] = target: T3, mutant CD45 D1-D2 protein T264A (Homo sapiens, UniProt P08575 225-394, limits assumed)
T3 chain: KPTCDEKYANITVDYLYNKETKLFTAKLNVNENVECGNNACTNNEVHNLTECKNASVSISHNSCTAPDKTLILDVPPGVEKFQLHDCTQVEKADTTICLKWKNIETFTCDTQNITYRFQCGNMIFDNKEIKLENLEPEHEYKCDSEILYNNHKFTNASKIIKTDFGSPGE

[4] = target: T4, mutant CD45 D1-D2 protein I283M, H285R (Homo sapiens, UniProt P08575 225-394, limits assumed)
T4 chain: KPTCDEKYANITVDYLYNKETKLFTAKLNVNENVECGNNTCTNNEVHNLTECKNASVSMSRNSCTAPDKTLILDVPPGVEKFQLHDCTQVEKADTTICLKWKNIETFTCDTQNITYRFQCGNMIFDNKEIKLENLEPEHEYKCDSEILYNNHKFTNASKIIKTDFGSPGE

[5] = target: T5, mutant CD45 D1-D2 protein N257G (Homo sapiens, UniProt P08575 225-394, limits assumed)
T5 chain: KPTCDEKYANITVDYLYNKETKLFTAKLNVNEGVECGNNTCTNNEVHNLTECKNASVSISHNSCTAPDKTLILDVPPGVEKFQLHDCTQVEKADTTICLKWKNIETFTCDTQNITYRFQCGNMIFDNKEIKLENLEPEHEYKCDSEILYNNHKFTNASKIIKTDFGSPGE

[6] = target: T6, mutant CD45 D1-D2 protein I283M (Homo sapiens, UniProt P08575 225-394, limits assumed)
T6 chain: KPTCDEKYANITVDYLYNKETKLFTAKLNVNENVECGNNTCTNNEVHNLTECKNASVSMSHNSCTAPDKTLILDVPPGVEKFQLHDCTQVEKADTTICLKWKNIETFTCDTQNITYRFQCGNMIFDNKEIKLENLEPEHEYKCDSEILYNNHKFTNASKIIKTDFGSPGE

[7] = target: T7, mutant CD45 D1-D2 protein E259G (Homo sapiens, UniProt P08575 225-394, limits assumed)
T7 chain: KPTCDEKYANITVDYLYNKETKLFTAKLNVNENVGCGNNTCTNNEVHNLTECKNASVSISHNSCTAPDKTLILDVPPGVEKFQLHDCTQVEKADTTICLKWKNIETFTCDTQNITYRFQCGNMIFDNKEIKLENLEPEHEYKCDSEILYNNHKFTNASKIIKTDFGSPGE

[8] = target: T8, mutant CD45 D1-D2 protein N253G, N255G (Homo sapiens, UniProt P08575 225-394, limits assumed)
T8 chain: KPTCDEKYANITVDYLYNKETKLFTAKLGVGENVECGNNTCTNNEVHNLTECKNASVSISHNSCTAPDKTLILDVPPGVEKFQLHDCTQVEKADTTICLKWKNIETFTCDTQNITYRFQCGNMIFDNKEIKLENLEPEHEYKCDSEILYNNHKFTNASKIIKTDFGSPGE

[9] = target: T9, mutant CD45 D1-D2 protein I283M, H285R, N286G (Homo sapiens, UniProt P08575 225-394, limits assumed)
T9 chain: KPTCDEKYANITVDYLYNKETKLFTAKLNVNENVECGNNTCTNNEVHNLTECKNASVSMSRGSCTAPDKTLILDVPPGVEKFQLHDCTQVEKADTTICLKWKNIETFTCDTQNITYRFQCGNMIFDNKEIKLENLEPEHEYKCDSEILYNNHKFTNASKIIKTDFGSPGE

[10] = target: T10, mutant CD45 D1-D2 protein T266A, N267G (Homo sapiens, UniProt P08575 225-394, limits assumed)
T10 chain: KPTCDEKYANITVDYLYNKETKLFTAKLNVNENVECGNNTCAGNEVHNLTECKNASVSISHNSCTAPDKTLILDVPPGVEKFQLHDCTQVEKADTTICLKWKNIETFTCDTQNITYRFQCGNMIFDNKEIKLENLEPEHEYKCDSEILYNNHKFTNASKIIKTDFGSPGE

% Mutant Binding [1]: 73.4%
% Mutant Binding [2]: 69.3%
% Mutant Binding [3]: 112%
% Mutant Binding [4]: 1%
% Mutant Binding [5]: 1.7%
% Mutant Binding [6]: 12.9%
% Mutant Binding [7]: 2.7%
% Mutant Binding [8]: 44.9%
% Mutant Binding [9]: 0.7%
% Mutant Binding [10]: 1.4%
B1: mAb U139AGL030-9 (mAb030-9) (antibody, mouse IgG1, kappa, V domains shown)
VH: EVKLLESGGGLVQPGGSLKLSCAASGFDFSRYWMSWVRQAPGKGLEWIGEINPTSSTINFTPSLKDKVFISRDNAKNTLYLQMSKVRSEDTALYYCARGNYYRYGDAMDYWGQGTSVTVSS
VL: DIALTQSPASLAVSLGQRATISCRASKSVSTSGYSYLHWYQQKPGQPPKLLIYLASNLESGVPARFSGSGSGTDFTLNIHPVEEEDAATYYCQHSRELPFTFGSGTKLEIKR
notes: In the biosensor assay the antibody was captured with Anti-Human IgG Fc Capture (AHC); also called mAb30-9; mAb039-9
